Values quoted from earlier work as cited in patent publication US20230167467A1, “METHODS AND COMPOSITIONS FOR THE PRODUCTION OF ISOBUTENE” (University of Alaska Anchorage, priority 2020, published 2023).
Where two headings read alike, the source gives them in different places.

Experiments:
[1] = system: 3-HIV; conditions: expressed in E. coli, plasmid based system, synthetic media; cited from earlier work
[2] = cited from earlier work; for Isobutene production: purified M3K

B1: M3K: mevalonate-3-kinase of Picrophilus torridus, enzyme and gene/transcript (optimized gene SEQ ID NO:1) (protein)
chain: MENYNVKTRAFPTIGIILLGGISDKKNRIPLHTTAGIAYTGINNDVYTETKLYVSKDEKSYIDGKEIDLNSDRSPSKVIDKFKHEILMRVNLDDENNLSIDSRNFNILSGSSDSGAAALGECIESIFEYNINIFTFENDLQRISESVGRSLYGGLTVNYANGRESLTEPLLEPEAFNNFTIIGAHFNIDRKPSNEIHENIIKHENYRERIKSAERKAKKLEELSRNANIKGIFELAESDTVEYHKMLHDVGVDIINDRMENLIERVKEMKNNFWNSYIVTGGPNVFVITEKKDVDKAMEGLNDLCDDIRLLKVAGKPQVISKNF
modifications: optimized gene; M3K optimized gene
[1]
  isobutene production rates: up to 507 pmol min^−1 g cells^−1
[2]; purified M3K enzyme with 3-HIV, 50° C.
  highest overall bioproduction of isobutene: 2,880±140 pmol/min*mg protein
[2]; 30° C.
  Isobutene production: 26±2 pmol*min-1 *mg protein
[2]; 50° C.
  Isobutene production: 2,880±140 pmol*min-1 *mg protein
